Patent publication US20100169989A1
pKd, pKi: −log10 of the molar value.

Key:
[1] = target: myostatin mature C-terminal dimer (purified from conditioned medium of CHO cells carrying a myostatin expression construct) (UniProt O14793); assay: inhibition of labeled myostatin binding to Act RIIB-transfected COS-7 cells
[2] = target: cell surface binding proteins on L6 myoblasts (GDF-8 receptor); assay: I-125 labeled GDF-8 receptor-ligand binding assay on myoblasts

Chain of myostatin prodomain peptide (purified from the CHO cell myostatin preparation) (O08689 25-267): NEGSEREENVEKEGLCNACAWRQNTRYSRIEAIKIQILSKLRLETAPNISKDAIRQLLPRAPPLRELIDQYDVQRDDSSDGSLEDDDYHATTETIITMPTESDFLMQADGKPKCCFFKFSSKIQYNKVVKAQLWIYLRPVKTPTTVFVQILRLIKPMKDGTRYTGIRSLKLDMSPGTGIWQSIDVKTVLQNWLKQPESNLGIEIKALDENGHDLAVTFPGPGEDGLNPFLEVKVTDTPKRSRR

follistatin
pKi [1]: 9.33

myostatin prodomain peptide (purified from the CHO cell myostatin preparation)
fold of Ki against the Ki of follistatin [1]: 50 fold

recombinant human GDF-8 (rhGDF-8) homodimer (from UniProt O14793 267-374) (ligand)
pKd [2]: 9.43
